Laboratory results published in patent US9133271 (AbbVie / Abbott, dated 2015).

T1: murine DLL3 on 293 cells (h293-mDLL3) (murine, UniProt O88516 33-584)
T1 sequence: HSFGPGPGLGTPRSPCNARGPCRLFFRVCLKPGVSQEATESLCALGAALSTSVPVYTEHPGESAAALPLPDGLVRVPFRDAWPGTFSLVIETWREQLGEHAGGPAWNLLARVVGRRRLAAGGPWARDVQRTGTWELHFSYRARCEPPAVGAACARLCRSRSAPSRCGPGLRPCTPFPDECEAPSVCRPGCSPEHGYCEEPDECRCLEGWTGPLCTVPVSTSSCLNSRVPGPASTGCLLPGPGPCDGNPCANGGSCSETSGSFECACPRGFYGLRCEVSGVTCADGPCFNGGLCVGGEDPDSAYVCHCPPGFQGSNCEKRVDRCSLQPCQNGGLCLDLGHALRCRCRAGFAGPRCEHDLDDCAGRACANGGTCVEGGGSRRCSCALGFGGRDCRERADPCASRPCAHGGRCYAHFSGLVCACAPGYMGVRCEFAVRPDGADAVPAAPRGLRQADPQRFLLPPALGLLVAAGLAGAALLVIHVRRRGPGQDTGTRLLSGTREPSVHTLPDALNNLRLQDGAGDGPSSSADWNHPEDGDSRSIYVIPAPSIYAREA

T2: human DLL3 on cells (h293-hDLL3 cells; endogenous DLL3 on NTX tumor cells) (human, UniProt Q9NYJ7 27-618)
T2 sequence: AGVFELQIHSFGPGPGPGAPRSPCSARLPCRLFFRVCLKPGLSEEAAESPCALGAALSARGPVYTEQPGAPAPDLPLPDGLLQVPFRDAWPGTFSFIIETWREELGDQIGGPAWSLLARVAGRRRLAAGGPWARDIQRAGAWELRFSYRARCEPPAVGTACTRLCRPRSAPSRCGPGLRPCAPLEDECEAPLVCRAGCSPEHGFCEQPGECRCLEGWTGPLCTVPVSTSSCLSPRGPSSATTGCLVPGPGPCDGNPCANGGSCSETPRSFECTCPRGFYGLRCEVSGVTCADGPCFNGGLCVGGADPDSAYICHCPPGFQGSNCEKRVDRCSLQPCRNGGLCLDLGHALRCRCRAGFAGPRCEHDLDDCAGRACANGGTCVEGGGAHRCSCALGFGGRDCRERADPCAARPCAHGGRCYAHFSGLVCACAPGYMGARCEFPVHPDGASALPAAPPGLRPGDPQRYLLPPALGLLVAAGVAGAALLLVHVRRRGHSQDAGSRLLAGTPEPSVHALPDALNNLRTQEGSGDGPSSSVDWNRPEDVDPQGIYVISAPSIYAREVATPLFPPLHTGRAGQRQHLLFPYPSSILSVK


Tests used:
[1] = target: T1, murine DLL3 on 293 cells (h293-mDLL3); test: flow cytometry on 293 cells over-expressing murine DLL3
Experimental: For the flow cytometry assays, 50 ×10^4 h293 cells transduced respectively with human, cynomolgus, rat or murine DLL3 were incubated for 30 minutes with 25-100 μL hybridoma supernatant. […] After 15 minutes of incubation, cells were washed twice with PBS/2% FCS and resuspended in PBS/2% FCS with DAPI and analyzed by flow cytometry using a FACSCanto IT as per the manufacturer's instructions.

[2] = target: T2, human DLL3 on cells (h293-hDLL3 cells; …); test: cell-based or functional assay
[3] = target: T2, human DLL3 on cells (h293-hDLL3 cells; …); test: cell-based or functional assay; remark: listed apart in the source
[4] = target: T1, murine DLL3 on 293 cells (h293-mDLL3); test: assay and form of the mouse antigen not given on the sheet; table of properties of humanized constructs

Binder | % Live Cells (in vitro), KDY66 cells, antibody plus anti-mouse IgG Fab-saporin [2] [%] | further results
SC16.67 (antibody, V domains shown, murine anti-DLL3 mAb) VH: EVQLVETGGGLVQPKGSLKLSCAVSAFTFTTYAMNWVRQAPGKGLEWVARIRNKSNNYATYYADSVKDRFTISRDDSQSMLYLQMNNLKIEDTAMYYCVFYYDYVYWGQGTLVTVSA VL: QAVVTQESALTTSPGETVTLTCRSSTGAVTTSNYANWIQEKPDHLFTGLIGGTNNRAPGVPARFSGSLIGDKAALTITGAQTEDEAIYFCGLWYSNHLVFGGGTKLTVL | 37 | binding result [1]: no binding
SC16.65 (antibody, V domains shown) VH: QVTLKESGPGILQPSQTLSLTCSFSGFSLSTSGMGVGWIRQPSGKGLEWLALIWWDDVKRYNPALKSRLTISKDASSSQVFLKIASVDTADTATYYCARIASYDYDVVYAMDYWGQGTSVSVSS VL: QIVLTQSPALMSASPGEKVTMTCSVTSSVSYMYWYQQKPRSSPKPWIYLTSNLASGVPARFSGSGSGTSYSLTISSVEAEDAATYYCQQWRNNPFTFGSGTKVEIK | 13 | 
SC16.13 (antibody, V domains shown) VH: QVTLKESGPGILQPSQTLSLTCSFSGFSLSTSGMGVGWIRQPSGKGLEWLAHIWWDDVKRYNPALKSRLTISKDTSSSQVFLKIASVDTADTATYYCARIVSFDNDVVSAMDYWGQGTSVTVSS VL: QIVLTQSPALVSASPGEKVTMTCSASSSVSYMYWYQQKPRSSPKPWIYLTSNLASGVPARFSGSGSGTSYSLTISSMEAEDAATYYCQQWRSNPFTFGSGTKLEIK | 31 | 
SC16.8 (antibody, V domains shown) VH: QAQLQQSGAELVRPGTSVKVSCKASGYAFTNYLIEWVKQRPGQGLEWIGVINPGTGGTNYNENFKGKATLTADKSSSTAYMQLSSLTSDDSAVYFCARSPYDYHEGAMDYWGQGTSVTVSS VL: EIQMTQSPSSMSASLGDRITITCQATQDIVKNLNWYQQKPGKPPSFLIYYAIELAEGVPSRFSGSGSGSDYSLTISNLESEDFADYYCLQFYEFPFTFGAGTKLELK | 82 | 
SC16.34 (antibody, V domains shown) VH: QIQLVQSGPELKRPGETVKISCKASGYTFTNYGMNWVKQAPGKGLKWMGWINTYTGDPTYADDFKGRFAFSLETSASTAYLQINNLKNEDTATYFCARIGGNSPSDYWGQGTSLTVSS VL: SIVMTQTPKFLLVSAGDRVTITCKASQSVSNDVAWYQQKPGQSPKLLIYYASNRYSGVPDRFTGSGYGTDFTFTISTVQAEDLAVYFCQQDYSSPWTFGGGTKLEIK | 12 | EC50 of killing of OV26 NTX tumor cells with anti-mouse IgG Fab-saporin [3]: 5.7 pM
SC16.56 (antibody, V domains shown) VH: QIQLVQSGPELKKPGETVKISCKASGYTFTNYGMNWVKQAPGKGLKWMAWINTYTGEPTYADDFKGRFAFSLETSASTASLQIINLKNEDTATYFCARIGDSSPSDYWGQGTTLTVSS VL: SIVMTQTPKFLLVSAGDRVTITCKASQSVSNDVVWYQQKPGQSPKLLIYYASNRYTGVPDRFAGSGYGTDFSFTISTVQAEDLAVYFCQQDYTSPWTFGGGTKLEIR | 16 | 
SC16.15 (antibody, V domains shown) VH: QVQLQQSGAELAKPGASVKMSCKASGYTFTRYWIHWIKQRPGQGLEWIGYINPTTVYTEFNQNFKDKATLTADKSSTTASMQLSSLTSEDSAVYYCARGGSNFFDYWGQGTTLTVSS VL: DIQMTQSPASLAASVGETVAITCRASENIYYNLAWYQQKQGKSPQLLIYTANSLEDGVPSRFSGSGSGTQYSLKINSMQPEDSATYFCKQAYDVPPTFGGGTKLEIK | 24 | EC50 of killing of OV26 NTX tumor cells with anti-mouse IgG Fab-saporin [3]: 0.14 pM
hSC16.25 (antibody, V domains shown, CDR-grafted humanized antibody; also called humanized SC16.25) VL: EIVLTQSPDFQSVTPKEKVTITCSASSSVSYMHWYQQKPDQSPKLLIKDSSKLASGVPSRFSGSGSGTDFTLTINSLEAEDAATYYCQQWSSNPLTFGQGTKLEIK V domain: QITLKESGPTLVKPTQTLTLTCTFSGFSLSTSGMGVGWIRQPPGKALEWLTDIWWDDNKYYNPSLKSRLTITKDTSKNQVVLTMTNMDPVDTATYYCARRVNYYYDPYYAMDYWGQGTTLVTVS |  | binding result [4]: no binding
hSC16.13 (antibody, V domains shown, CDR-grafted humanized antibody; also called humanized SC16.13) VH: QITLKESGPTLVKPTQTLTLTCTFSGFSLSTSGMGVGWIRQPPGKALEWLAHIWWDDVKRYSPSLKSRLTITKDTSKNQVVLTMTNMDPVDTATYYCARIVSFDNDVVSAMDYWGQGTLVTVSS VL: DIQMTQSPSSLSASVGDRVTITCSASSSVSYMYWYQQKPGKAPKLLIYLTSNLASGVPSRFSGSGSGTDFTLTISSLQPEDFATYYCQQWRSNPFTFGQGTKLEIKR |  | binding result [4]: no binding
SC16.10 (antibody, V domains shown) VH: QVTLKESGPGILQSSQTLSLTCSFSGFSLSTSGMGVGWIRQPSGKGLEWLAHIWWDDVKRYNPVLKSRLTISKDTSSSQVFLKIASVDTADTATYYCARLVDDLYYFDYWGQGTTLTVSS VL: QIVLTQSPAIMSASLGERVTMTCTASSSVSSSYLHWYQQKPGSSPKLWIYSTSNLASGVPTRFSGSGSGTSYSLTISSMEAEDAATYYCHQYHRSPFTFGSGTKLEIK | 18 | 
SC16.4 (antibody, V domains shown) VH: QIQLVQSGPELKKPGETVKISCKASGYTFTDYSMHWVKQAPGKGLKWMGWINTETGEPGYADDFKGRFAFSLETSASTAYLQINNLKNEDTATYFCARYDGYAMDYWGQGTSVTVSS VL: DIQMTQTTSSLSASLGDRVTISCRASQDISNYLNWYQQKPDGTVKLLIYYTSRLHSGVPSRFSGSGSGTDYSLTISNLELEDIATYFCQQGDMLPWTFGGGTKLEIK | 49 | 
SC16.39 (antibody, V domains shown) VH: EVKLEESGGGLVQFGGSMKLSCAASGFTFSDAWMDWVRQSPEKGLEWVAEIRNKANNHATYYPESVKGRFTISRDDSKSRVYLQMNNLRAEDTGIYYCTGYSSFAYWGQGTLVTVSA VL: DIQMTQTTSSLSASLGDRVTISCRASQDVINYLNWYQQKPDGTVKLLIYYTSRLHSGVPSRFSGSGSRTDYSLTISNLEPEDIATYYCQQYSERPYTFGGGTKLEIK | 98 | 
SC16.25 (antibody, V domains shown) VH: QVTLKESGPGILQPSQTLSLTCSFSGFSLSTSGMGVGWIRQPSGEGLEWLTDIWWDDNKYYNPSLKSRLTISKDTSSNQVFLNITSVDTADTATYYCARRVNYYYDPYYAMDYWGQGTSVTVSS VL: QIVLTQSPAIMSASPGEKVTMTCSASSSVSYMHWYQQKSGTSPKRWIYDSSKLASGVPARFSGSGSGTSYSLTISSMEAEDAATYYCQQWSSNPLTFGAGTKLELK | 28 | 
